Measurements published in patent US20160058881A1, “PRODRUGS WITH PROLONGED ACTION” (INDIANA UNIVERSITY RESEARCH AND TECHNOLOGY CORPORATION, priority 2013, published 2016).
Read-outs that look alike come from different tables or passages of the source. Positions of bridges follow the written chain, without caps; N, C: chain ends. Non-standard residues stand in square brackets, D forms with d. Residues, ends and D or L forms follow the SMILES beside them. Groups on a side chain read outwards from the residue. No end group written: not given here. *: point of attachment. Docosanoyl = CCCCCCCCCCCCCCCCCCCCCC(=O)*; Phe(4-NH2) = Nc1ccc(C[C@H](N)C(=O)O)cc1; PhLac = O=C(O)[C@@H](O)Cc1ccccc1; Aib = CC(C)(N)C(=O)O; Sar = CNCC(=O)O

How the values were obtained:
[1] = assay type: physicochemical; settings: buffer
Method: Preliminary analyses were performed with these crude peptides for an approximation of their relative conversion rates in Phosphate Buffered Saline (PBS) buffer (pH, 7.2) using high performance liquid chromatography (HPLC) and MALDI analysis. The crude peptide samples were dissolved in the PBS buffer at a concentration of 1 mg/mL. […] Aliquots of 100 μL were drawn out at various time intervals, cooled to room temperature and analyzed by HPLC. […] The peptides described above were incubated in PBS buffer or serum at 37° C. for up to 8 days. Samples were collected at different time points for PBS and plasma and half-life was determined. […] The peptides described above were incubated in PBS buffer or serum at 37° C. for up to 8 days. Samples were collected at different time points for PBS and plasma and half-life was determined. […] The shorter half-life seen when the acylated dipeptide was linked to […] might be due to a conformational change that facilitates cleavage when bound to plasma or alternatively to reduced detection of the acylated form when bound to plasma.

[2] = assay type: in vitro ADME
Method: The peptides described above were incubated in PBS buffer or serum at 37° C. for up to 8 days. Samples were collected at different time points for PBS and plasma and half-life was determined. […] The peptides described above were incubated in PBS buffer or serum at 37° C. for up to 8 days. Samples were collected at different time points for PBS and plasma and half-life was determined. […] The shorter half-life seen when the acylated dipeptide was linked to […] might be due to a conformational change that facilitates cleavage when bound to plasma or alternatively to reduced detection of the acylated form when bound to plasma.

[3] = system: diet induced obesity (DIO) mice; assay: In vivo effects in DIO mice, single injection (Example 4); set-up: species or system mice (strain: C57B16); settings: single s.c. injection, lower dose (10 nmol/kg), Day 0-5
Method: The Peptide D prodrug described in Example 3 was tested for its in vivo effects in diet induced obesity (DIO) mice (strain: C57B16). Nine groups of eight mice (with an initial average body weight of 50 g) were subcutaneously injected with vehicle only or 10 nmol/kg or 50 nmol/kg of a Peptide D acylated prodrug of Example 3, the parent peptide (i.e., Peptide D lacking an acylated dipeptide prodrug moiety), Peptide D with an acylated lysine residue linked directly the 4-amino phenylalanine at position 10, or the following peptide: YAib[…](γEγE-C16)[…]ib[…] (SEQ ID NO: 3082) (Peptide F). The mice were 6 months old and had been on a high fat diet for approximately 2 months. Body weight was monitored for a week following injection and was measured on Day 0, 1, 2, and 5, wherein Day 0 was the day of injection (FIG. 2).

[4] = system: diet induced obesity (DIO) mice; assay: In vivo effects of acyl chain length variants in DIO mice, single injection (Example 5); set-up: species or system mice (strain: C57B16); settings: single s.c. injection, 10 nmol/kg, Day 0-7
Method: The Peptide D variants described above were also tested for their in vivo effects in diet induced obesity (DIO) mice (strain: C57B16). Nine groups of eight mice (with an initial average body weight of 50 g) were subcutaneously injected with vehicle only, or 10 nmol/kg of a Peptide D with C18 acylation via the dipeptide prodrug moiety (as described in Example 3), the parent peptide (i.e., Peptide D lacking acylation and lacking a dipeptide prodrug moiety), Peptide D with a C18 acyl group linked directly to the 4-amino phenylalanine at position 10, a Peptide D with C20 acylation via the dipeptide prodrug moiety, Peptide D with a C20 acyl group linked directly to the 4-amino phenylalanine at position 10, a Peptide D with C22 acylation via the dipeptide prodrug moiety, and Peptide D with a C22 acyl group linked directly to the 4-amino phenylalanine at position 10. The mice were 6 months old and had been on a high fat diet for approximately 2 months. Body weight was monitored for a week following injection and was measured on Day 0, 1, 2, 5, and 7 wherein Day 0 was the day of injection (FIG. 3A, 3B).

[5] = target: T1, GLP-1 receptor (Homo sapiens, UniProt P43220); assay: GLP-receptor luciferase bioassay of samples incubated in 20% human plasma (restored activity); assay type: cell-based; settings: 37° C.; for Change of activity over the time points in plasma: 0 to 5 d
Method: To explore the possible formation of DKP and simultaneous regeneration of the parent drug, the above-mentioned peptides were incubated in 20% human plasma at 37° C. for approximately 5 days. Samples were collected at different time points (0, 1, 2, and 5 days).
Target sequence in this assay (P43220 24-463): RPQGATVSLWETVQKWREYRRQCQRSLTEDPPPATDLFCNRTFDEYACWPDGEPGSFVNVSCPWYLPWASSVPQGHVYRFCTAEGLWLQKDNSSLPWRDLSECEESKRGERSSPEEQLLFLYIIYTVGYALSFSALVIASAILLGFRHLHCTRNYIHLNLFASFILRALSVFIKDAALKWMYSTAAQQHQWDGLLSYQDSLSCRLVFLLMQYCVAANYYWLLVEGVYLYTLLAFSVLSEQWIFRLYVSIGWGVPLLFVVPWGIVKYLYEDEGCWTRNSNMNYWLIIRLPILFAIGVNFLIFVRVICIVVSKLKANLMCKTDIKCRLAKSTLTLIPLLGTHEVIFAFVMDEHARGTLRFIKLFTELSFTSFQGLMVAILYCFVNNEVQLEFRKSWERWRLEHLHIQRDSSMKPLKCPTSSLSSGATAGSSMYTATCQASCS

[6] = system: diet induced obesity (DIO) mice; assay: In vivo effects of daily prodrug injection in DIO mice (Example 6); set-up: species or system mice (strain: C57B16); settings: s.c. daily for 5 days, 10 nmol/kg
Method: C22 acylated versions of Peptide D were also tested for their in vivo effects in diet induced obesity (DIO) mice (strain: C57B16) following daily administrations. Nine groups of eight mice (with an initial average body weight of 65 g) were subcutaneously injected daily for 5 days with vehicle only or 3 nmol/kg or 10 nmol/kg of Peptide D (parent peptide), a Peptide D with C22 acylation via the prodrug dipeptide moiety and Peptide D with a C22 acyl group linked directly to the 4-amino phenylalanine at position 10. The mice were 11 months old and had been on a high fat diet for approximately 2 months. Body weight was monitored for a week following injection and was measured on Day 0, 1, 2, 3, 4 and 7, wherein Day 0 was the day of injection (FIG. 4A, 4B).

[7] = system: diet induced obese (DIO) mice; assay: In vivo effects of alternate prodrug injection schemes in DIO mice (Example 7); set-up: species or system mice (strain: C57B16); settings: s.c., 40 nmol/kg once, 20 nmol/kg twice, or 10 nmol/kg daily for four days
Method: C22 acylated versions of Peptide D were also tested for their in vivo effects in diet induced obese (DIO) mice (strain: C57B16) following alternative administration schedules. Two groups of eight mice (with an initial average body weight of 65 g) were subcutaneously injected once with 40 nmol/kg of Peptide D (parent peptide without acylation and without a dipeptide prodrug moiety), or 40 nmol/kg of a Peptide D with C22 acylation via the dipetide prodrug moiety. Three groups of eight mice were subcutaneously injected twice (1 day between injections, e.g., Monday-Wednesday) with vehicle only, 20 nmol/kg of Peptide D (parent peptide), or 20 nmol/kg of a Peptide D C22 acylated prodrug. Finally, three groups of eight mice were subcutaneously injected daily for four days with vehicle only, 10 nmol/kg of Peptide D (parent peptide), or 10 nmol/kg of a Peptide D C22 acylated prodrug.

[8] = target: T1, GLP-1 receptor; assay: cell-based or functional assay
Target sequence in this assay (P43220 24-463 limits assumed): as the sequence (P43220 24-463) above

[9] = target: glucagon receptor (UniProt P47871); assay: cell-based or functional assay
Sequence of glucagon receptor (UniProt P47871) (P47871 26-477 limits assumed): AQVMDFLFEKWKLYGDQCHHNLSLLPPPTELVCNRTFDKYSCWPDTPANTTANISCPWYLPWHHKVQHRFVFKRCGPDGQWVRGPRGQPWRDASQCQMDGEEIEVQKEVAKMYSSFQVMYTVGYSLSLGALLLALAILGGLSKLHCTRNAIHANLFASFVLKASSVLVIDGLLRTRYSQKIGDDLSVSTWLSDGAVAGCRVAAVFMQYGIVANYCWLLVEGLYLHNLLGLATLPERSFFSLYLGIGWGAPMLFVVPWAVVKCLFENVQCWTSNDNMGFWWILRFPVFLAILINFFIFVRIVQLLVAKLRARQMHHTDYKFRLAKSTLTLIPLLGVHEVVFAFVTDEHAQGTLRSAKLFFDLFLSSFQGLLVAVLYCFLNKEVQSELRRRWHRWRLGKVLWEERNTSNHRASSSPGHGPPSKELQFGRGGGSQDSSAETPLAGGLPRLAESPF

[10] = target: T1, GLP-1 receptor; assay: cell-based or functional assay; remark: listed apart in the source
Target sequence in this assay (P43220 24-463 limits assumed): as the sequence (P43220 24-463) above

[11] = target: glucagon receptor (UniProt P47871); assay: cell-based or functional assay; remark: listed apart in the source
[12] = target: T1, GLP-1 receptor; assay: GLP-1 agonist activity, cAMP production in an in vitro assay; assay type: cell-based; settings: versus glucagon receptor
Target sequence in this assay (P43220 24-463): as above
Description: Receptor activation can be measured by in vitro assays measuring cAMP induction in HEK293 cells over-expressing the receptor, e.g. assaying HEK293 cells co-transfected with DNA encoding the receptor and a luciferase gene linked to cAMP responsive element as described in the examples.

[13] = target: T2, glucagon receptor (UniProt P47871 26-477, limits assumed); assay: cell-based or functional assay
T2 sequence (P47871 26-477 limits assumed): as the sequence (P47871 26-477 limits assumed) above

[14] = target: T3, GLP-1 receptor (UniProt P43220 24-463, limits assumed); assay: cell-based or functional assay
[15] = target: T2, glucagon receptor; assay: cell-based or functional assay; remark: listed apart in the source
[16] = target: T3, GLP-1 receptor; assay: cell-based or functional assay; remark: listed apart in the source
[17] = after last injection on day 4 to day 7

Molecule: CC[C@H](C)[C@H](NC(=O)[C@H](CO)NC(=O)[C@H](Cc1ccc(N)cc1)NC(=O)[C@H](CC(=O)O)NC(=O)[C@H](CO)NC(=O)[C@@H](NC(=O)[C@H](Cc1ccccc1)NC(=O)[C@@H](NC(=O)CNC(=O)[C@H](CCC(=O)O)NC(=O)C(C)(C)NC(=O)[C@@H](N)Cc1ccccc1)[C@@H](C)O)[C@@H](C)O)C(=O)N[C@@H](Cc1ccc(O)cc1)C(=O)N[C@@H](CC(C)C)C(=O)N[C@@H](CC(=O)O)C(=O)N[C@@H](CCCCN)C(=O)N[C@@H](CCC(N)=O)C(=O)N[C@@H](C)C(=O)N[C@@H](C)C(=O)NC(C)(C)C(=O)N[C@@H](CCC(=O)O)C(=O)N[C@@H](Cc1ccccc1)C(=O)N[C@H](C(=O)N[C@@H](CC(N)=O)C(=O)N[C@@H](Cc1c[nH]c2ccccc12)C(=O)N[C@@H](CC(C)C)C(=O)N[C@@H](CC(C)C)C(=O)N[C@@H](C)C(=O)NCC(=O)NCC(=O)N1CCC[C@H]1C(=O)N[C@@H](CO)C(=O)N[C@@H](CO)C(=O)NCC(=O)N[C@@H](C)C(=O)N1CCC[C@H]1C(=O)N1CCC[C@H]1C(=O)N1CCC[C@H]1C(=O)N[C@@H](CO)C(N)=O)C(C)C [Peptide D] (H-F[Aib]EGTFTSD[Phe(4-NH2)]SIYLDKQAA[Aib]EFVNWLLAGGPSSGAPPPS-NH2; N-terminus and C-terminus assumed)
- half-life [1]: ~24 h
- half-life [2]: ~24 h
- Body weight [3]: decline in weight through day 2 before weight began to increase slightly
- Body weight [4]: caused the most weight loss

Molecule: C22 attached to position 10 (via A-B prodrug): Peptide D with (d)Lysine-sarcosine dipeptide on 4-amino group of phenylalanine at position 10, C22 acyl on epsilon amino of (d)Lysine (F[Aib]EGTFTSD[Phe(4-NH2)]([Sar-dK-Docosanoyl])SIYLDKQAA[Aib]EFVNWLLAGGPSSGAPPPS; not fully specified (C-terminus))
- Restored (activity relative to parent peptide) ([5]; 0 d): Restored 36%
- Change of activity over the time points in plasma [5]: Activity Restored
- Restored (activity relative to parent peptide) ([5]; 1 d): Restored 57%
- Restored (activity relative to parent peptide) ([5]; 5 d): Restored 87%
- Body weight [6, 17]: continued to lose weight through day 7
- Body weight ([6]; through day 4): caused the most weight loss
- Body weight (weight loss compared to the parent peptide) [7]: more total and sustained weight loss

Molecule: D9, K12E16(Lactam) glucagon(6-39) Cex peptide (Table 1 peptide 4)
- GLP-1 EC50 [8]: 119 nM
- Glu IC50 [9]: 828 nM
- GLP-1 EC50 [10]: 18 nM
- Glucagon IC50 [11]: 828 nM

Molecule: E9, K12E16(lactam) glucagon(6-39) Cex peptide (Table 1 peptide 2)
- GLP-1 EC50 [8]: 63 nM
- Glu IC50 [9]: 2010 nM
- Glucagon IC50 [11]: 2010 nM

Molecule: FAibEGTFTSDF(NH2)SIYLDKQAAAibEFVNWLLAGGPSSGAPPPS (F[Aib]EGTFTSD[Phe(4-NH2)]SIYLDKQAA[Aib]EFVNWLLAGGPSSGAPPPS-NH2; N-terminus assumed; SMILES CC[C@H](C)[C@H](NC(=O)[C@H](CO)NC(=O)[C@H](Cc1ccc(N)cc1)NC(=O)[C@H](CC(=O)O)NC(=O)[C@H](CO)NC(=O)[C@@H](NC(=O)[C@H](Cc1ccccc1)NC(=O)[C@@H](NC(=O)CNC(=O)[C@H](CCC(=O)O)NC(=O)C(C)(C)NC(=O)[C@@H](N)Cc1ccccc1)[C@@H](C)O)[C@@H](C)O)C(=O)N[C@@H](Cc1ccc(O)cc1)C(=O)N[C@@H](CC(C)C)C(=O)N[C@@H](CC(=O)O)C(=O)N[C@@H](CCCCN)C(=O)N[C@@H](CCC(N)=O)C(=O)N[C@@H](C)C(=O)N[C@@H](C)C(=O)NC(C)(C)C(=O)N[C@@H](CCC(=O)O)C(=O)N[C@@H](Cc1ccccc1)C(=O)N[C@H](C(=O)N[C@@H](CC(N)=O)C(=O)N[C@@H](Cc1c[nH]c2ccccc12)C(=O)N[C@@H](CC(C)C)C(=O)N[C@@H](CC(C)C)C(=O)N[C@@H](C)C(=O)NCC(=O)NCC(=O)N1CCC[C@H]1C(=O)N[C@@H](CO)C(=O)N[C@@H](CO)C(=O)NCC(=O)N[C@@H](C)C(=O)N1CCC[C@H]1C(=O)N1CCC[C@H]1C(=O)N1CCC[C@H]1C(=O)N[C@@H](CO)C(N)=O)C(C)C) [Parent peptide (Peptide D), Peptide D lacking acylation and lacking a dipeptide prodrug moiety]
- Change of activity over the time points in plasma [5]: No change
- Body weight [3]: declined through day 1, but returned close to the starting weight by day 5
- Body weight [4]: declined through day 1, but returned toward the starting weight by day 7
- Body weight [6, 17]: began gaining weight

Molecule: SEQ ID NO: 22: glucagon analog substituting the native glutamine at position 3 with glutamic acid
- selectivity for the GLP-1 receptor [12]: approximately a tenfold selectivity for the GLP-1 receptor

Molecule: [PhLac]TSDYSKYLDERRAKDFVQWLMDT (lactam 11-15) [[PLA6, D9, E16K20(lactam), D28]G(6-29) (Table 2 peptide 1)]
- Glucagon IC50 [13]: 10 to 30 nM
- GLP-1 EC50 [14]: 4 nM
- Glucagon IC50 [15]: 6 nM

Molecule: [PhLac]TSDYSKYLDERRAQDFVQWLMDT (lactam 7-11; not fully specified) [[PLA6, D9, K12E16(Lactam), D28]G(6-29) (Table 2 peptide 2)]
- GLP-1 EC50 [16]: 177 nM
- Glucagon IC50 [13]: 63 nM
- GLP-1 EC50 [14]: 21 nM
- Glucagon IC50 [15]: 13 nM
